This is an account of results in patent US20260227416A1 (published 2026).

This assay addresses T1, CD20 on SU-DHL4 cells (UniProt P11836 1-297, limits assumed).
T1 sequence (looked up): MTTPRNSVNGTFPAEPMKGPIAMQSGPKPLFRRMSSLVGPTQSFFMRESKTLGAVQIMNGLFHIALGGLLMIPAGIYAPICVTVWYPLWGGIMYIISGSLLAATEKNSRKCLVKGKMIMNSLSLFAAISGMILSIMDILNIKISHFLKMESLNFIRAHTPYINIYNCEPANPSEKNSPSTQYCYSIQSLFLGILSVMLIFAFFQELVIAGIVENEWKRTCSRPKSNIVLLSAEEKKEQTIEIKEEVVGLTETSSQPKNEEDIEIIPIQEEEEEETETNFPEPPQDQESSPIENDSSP
Briefly: cell-based or functional assay.

B1: Rituximab chimeric antibody (antibody, human IgG1, kappa, V domains shown)
VH: VQLQQPGAELVKPGASVKMSCKASGYTFTSYNMHWVKQTPGRGLEWIGAIYPGNGDTSYNQKFKGKATLTADKSSSTAYMQLSSLTSEDSAVYYCARSTYYGGDWYFNVWGAGTTVTVSA
VL: QIVLSQSPAILSASPGEKVTMTCRASSSVSYIHWFQQKPGSSPKPWIYATSNLASGVPVRFSGSGSGTSYSLTISRVEAEDAATYYCQQWTSNPPTFGGGTKLEIKR
Regarding B1, the “EC50 values of target cell killing (ADCC, SU-DHL4 target cells)” value was around 10 ng/mL.
